Data taken from patent publication US10501748B2, “Methods and compositions for integration of an exogenous sequence within the genome of plants” (Dow AgroSciences LLC, priority 2013, dated 2019).

Tests used:
[1] = tested on: endogenous AHAS genes (three homoeologous copies); assay: transient assay of ZFN-mediated NHEJ-directed AHAS editing in PEG-transfected SEC protoplasts; format: cell-based, Triticum aestivum; conditions: SEC protoplast
Excerpt: (§1) The first type of donor design was a linear, double stranded DNA molecule comprising 41-bp of sequence that shared no homology with the endogenous AHAS genes in wheat. Two donor DNA molecules were designed, each to target the three homoeologous copies of the AHAS gene. Both donor DNA molecules had protruding 5′ and 3′ ends to provide ligation overhangs to facilitate ZFN-mediated NHEJ-directed DNA repair. The two donor DNA molecules differed by the sequence at their protruding 3′ end. The first donor DNA molecule, pDAS000152 (SEQ ID NO:74 and SEQ ID NO:75), was designed to provide ligation overhangs that were compatible with those generated by cleavage of the endogenous AHAS genes by ZFNs 29732 and 29730 (encoded on plasmid pDAB109350) and to result in the insertion of the 41-bp donor molecule into the endogenous AHAS gene at the site of the double strand DNA break via NHEJ-directed DNA repair. The second donor DNA molecule pDAS000149 (SEQ ID NO: 76 and SEQ ID NO:77) was designed to provide ligation overhangs that were compatible with those generated by the dual cleavage of the endogenous AHAS genes by ZFNs 29732 and 29730 (encoded on plasmid pDAB109350) and ZFNs 30012 and 30018 (encoded on plasmid pDAB109360) and to result in the replacement of the endogenous AHAS sequence contained between the two double strand DNA breaks created by the ZFNs with the 41-bp donor molecule via NHEJ-directed DNA repair.
(§2) The second type of donor was a plasmid DNA vector containing 41-bp of sequence that shared no homology with the endogenous AHAS genes in wheat and that was flanked on either side by sequence that was recognized by the ZFN(s) used to create double strand DNA breaks in the endogenous AHAS genes. This donor design allowed in planta release of the unique 41-bp sequence from the plasmid DNA molecule by the same ZFN(s) used to cleave target sites in the endogenous AHAS genes, and simultaneous generation of protruding ends that were suitable for overhang ligation of the released 41-bp sequence into the endogenous AHAS genes via NHEJ-directed DNA repair. Two plasmid donor DNA molecules were designed, each to target the three homoeologous copies of the AHAS gene. The first plasmid donor molecule, pDAS000153 (SED ID NO:78 and SEQ ID NO:79) (FIG. 8), was designed to provide ligation overhangs on the released 41-bp DNA fragment that were compatible with those generated by cleavage of the endogenous AHAS genes by ZFNs 29732 and 29730 (encoded on plasmid pDAB109350). The second plasmid donor molecule, pDAS000150 (SEQ ID NO:80 and SEQ ID NO:81) (FIG. 9), was designed to provide ligation overhangs on the released 41-bp DNA fragment that were at one end compatible with those generated by ZFNs 29732 and 29730 (encoded on plasmid pDAB109350) and at the other end compatible with those generated by ZFNs 30012 and 30018 (encoded on plasmid pDAB109360). This design allowed the replacement of the endogenous AHAS sequence contained between the two double strand DNA breaks created by ZFNs 29732 and 29730 and ZFNs 30012 and 30018 with the 41-bp donor molecule sequence.
(§3) Seedlings of the donor wheat line were grown in an environment controlled growth room maintained at 18/16° C. (day/night) and a 16/8 hour (day/night) photoperiod with lighting provided at […]. Wheat spikes were collected at 12-14 days post-anthesis and were surface sterilized by soaking for 1 min in 70% (v/v) ethanol. The spikes were threshed and the immature seeds were sterilized for 15 min in 17% (v/v) bleach with gentle shaking, followed by rinsing at least three times with sterile distilled water. The embryos were aseptically isolated from the immature seeds under a dissecting microscope. The embryonic axis was removed using a sharp scalpel and discarded. The scutella were placed into a 9 cm PETRI™ dish containing 2-4 medium without TIMENTIN™, with the uncut scutellum oriented upwards. A total of 25 scutella were plated onto each 9 cm PETRI™ dish. […]

[2] = tested on: endogenous AHAS genes (three homoeologous copies); assay: transient assay of ZFN-mediated NHEJ-directed AHAS editing in biolistically transfected scutella; format: cell-based, Triticum aestivum; conditions: for Editing Frequency (ppm): NHEJ, scutella; for molecular evidence for ZFN-mediated NHEJ-directed gene editing: samples of SEC protoplasts and scutella, with pDAB109350 (pDAS000149, pDAS000150 also pDAB109360)
Excerpt: as §1, §2
as §3, with “osmotic MS (E3 maltose) medium,” for “2-4 medium without TIMENTIN™,”, “20” for “25”

[3] = wheat sub-genome A, ZFN 29732-2A-29730, ratio 5:1
[4] = wheat sub-genome A, ZFN 29732-2A-29730, ratio 10:1
[5] = wheat sub-genome A, ZFN 29732-2A-29730, ratio 20:1
[6] = wheat sub-genome A, ZFN n/a (donor only), average of three biological replicates
[7] = wheat sub-genome B, ZFN 29732-2A-29730, ratio 5:1
[8] = wheat sub-genome B, ZFN 29732-2A-29730, ratio 10:1
[9] = wheat sub-genome B, ZFN 29732-2A-29730, ratio 20:1
[10] = wheat sub-genome B, ZFN n/a (donor only)
[11] = wheat sub-genome D, ZFN 29732-2A-29730, ratio 5:1
[12] = wheat sub-genome D, ZFN 29732-2A-29730, ratio 10:1
[13] = wheat sub-genome D, ZFN 29732-2A-29730, ratio 20:1
[14] = wheat sub-genome D, ZFN n/a (donor only)

B1: pDAS000150: plasmid donor with 41-bp sequence flanked by sites for ZFNs 29732/29730 and 30012/30018; SEQ ID NO:80, 81 (nucleic acid)
chain 1: TGGATATCATAGTCCCGCATCAGGAGCACGTGCTGCCTATGATCCCAAGCGGTGGTGCTTTCAAGGACATGATCATGGGTTAGGTGCTGGTGGTCCGAAGGTCCACGCCGCCAACTACGGATGGCAGGACCTCGTACTGAAATTTCGACCTACAAGACCTACAAGTGTGACATGCGCAATCAGCATGATGCCCGCGT
chain 2: ACGCGGGCATCATGCTGATTGCGCATGTCACACTTGTAGGTCTTGTAGGTCGAAATTTCAGTACGAGGTCCTGCCATCCGTAGTTGGCGGCGTGGACCTTCGGACCACCAGCACCTAACCCATGATCATGTCCTTGAAAGCACCACCGCTTGGGATCATAGGCAGCACGTGCTCCTGATGCGGGACTATGATATCCA
modifications: pDAS000150
[1]; [3]
  Editing Frequency (ppm): 0 ppm
[1]; [4]
  Editing Frequency (ppm): 0 ppm
[1]; [5]
  Editing Frequency (ppm): 0 ppm
[1]; [6]
  Editing Frequency (ppm): 0 ppm
[1]; [7]
  Editing Frequency (ppm): 0 ppm
[1]; [8]
  Editing Frequency (ppm): 0 ppm
[1]; [9]
  Editing Frequency (ppm): 0 ppm
[1]; [10]
  Editing Frequency (ppm): 0 ppm
[1]; [11]
  Editing Frequency (ppm): 0 ppm
[1]; [12]
  Editing Frequency (ppm): 0 ppm
[1]; [13]
  Editing Frequency (ppm): 0 ppm
[1]; [14]
  Editing Frequency (ppm): 0 ppm
[2]; [3]
  Editing Frequency (ppm): 1 ppm
[2]; [4]
  Editing Frequency (ppm): 0 ppm
[2]; [6]
  Editing Frequency (ppm): 0 ppm
[2]; [7]
  Editing Frequency (ppm): 0 ppm
[2]; [8]
  Editing Frequency (ppm): 0 ppm
[2]; [10]
  Editing Frequency (ppm): 0 ppm
[2]; [11]
  Editing Frequency (ppm): 4 ppm
[2]; [12]
  Editing Frequency (ppm): 0 ppm
[2]; [14]
  Editing Frequency (ppm): 0 ppm
[2]
  molecular evidence for ZFN-mediated NHEJ-directed gene editing: Limited evidence

B2: pDAS000153: plasmid donor with 41-bp sequence flanked by ZFN 29732/29730 sites; SEQ ID NO:78, 79 (nucleic acid)
chain 1: TGGATATCATAGTCCCGCATCAGGAGCACGTGCTGCCTATGATCCCAAGCGGTGGTGCTTTCAAGGACATGATCATGGGTTAGGTGCTGGTGGTCCGAAGGTCCACGCCGCCAACTACGTGGATATCATAGTCCCGCATCAGGAGCACGTGCTGCCTATGATCCCAAGCGGTGGTGCTTTCAAGGACATGATCATGG
chain 2: CCATGATCATGTCCTTGAAAGCACCACCGCTTGGGATCATAGGCAGCACGTGCTCCTGATGCGGGACTATGATATCCACGTAGTTGGCGGCGTGGACCTTCGGACCACCAGCACCTAACCCATGATCATGTCCTTGAAAGCACCACCGCTTGGGATCATAGGCAGCACGTGCTCCTGATGCGGGACTATGATATCCA
modifications: pDAS000153
[1]; [3]
  Editing Frequency (ppm): 0 ppm
[1]; [4]
  Editing Frequency (ppm): 0 ppm
[1]; [5]
  Editing Frequency (ppm): 0 ppm
[1]; [6]
  Editing Frequency (ppm): 0 ppm
[1]; [7]
  Editing Frequency (ppm): 0 ppm
[1]; [8]
  Editing Frequency (ppm): 0 ppm
[1]; [9]
  Editing Frequency (ppm): 0 ppm
[1]; [10]
  Editing Frequency (ppm): 0 ppm
[1]; [11]
  Editing Frequency (ppm): 0 ppm
[1]; [12]
  Editing Frequency (ppm): 0 ppm
[1]; [13]
  Editing Frequency (ppm): 0 ppm
[1]; [14]
  Editing Frequency (ppm): 0 ppm
[2]; [3]
  Editing Frequency (ppm): 4 ppm
[2]; [4]
  Editing Frequency (ppm): 0 ppm
[2]; [6]
  Editing Frequency (ppm): 0 ppm
[2]; [7]
  Editing Frequency (ppm): 0 ppm
[2]; [8]
  Editing Frequency (ppm): 0 ppm
[2]; [10]
  Editing Frequency (ppm): 0 ppm
[2]; [11]
  Editing Frequency (ppm): 0 ppm
[2]; [12]
  Editing Frequency (ppm): 0 ppm
[2]; [14]
  Editing Frequency (ppm): 0 ppm
[2]
  molecular evidence for ZFN-mediated NHEJ-directed gene editing: poor evidence
